Source: patent US20160272693A1 (ZEALAND PHARMA A S, published 2016)
Values belong to the binder of their own block, whether it stands above or below them. *1 amine or outer side, *2 acyl side, *3 side chain or, on linkers, in order; H or OH if unused. Bridges are numbered along the chain shown (N, C = ends). [ ]: non-standard residue; d: D form. The star is where a group is joined. C20 diacid = O=C(O)CCCCCCCCCCCCCCCCCCC(=O)*; γGlu = O=C(O)[C@H](CCC(=O)[*:2])N[*:1]; Hyp = O=C(O)[C@@H]1C[C@@H](O)CN1; NMeI = CC[C@H](C)[C@H](NC)C(=O)O; Sar = CNCC(=O)O

Molecular target: T1, human amylin receptor 3 (hAMYR3), hCTR2 co-expressed with human receptor activity modifying protein 3 (hRAMP3) (human, UniProt P30988 25-474; O60896 24-148)
T1 sequence (looked up) 1: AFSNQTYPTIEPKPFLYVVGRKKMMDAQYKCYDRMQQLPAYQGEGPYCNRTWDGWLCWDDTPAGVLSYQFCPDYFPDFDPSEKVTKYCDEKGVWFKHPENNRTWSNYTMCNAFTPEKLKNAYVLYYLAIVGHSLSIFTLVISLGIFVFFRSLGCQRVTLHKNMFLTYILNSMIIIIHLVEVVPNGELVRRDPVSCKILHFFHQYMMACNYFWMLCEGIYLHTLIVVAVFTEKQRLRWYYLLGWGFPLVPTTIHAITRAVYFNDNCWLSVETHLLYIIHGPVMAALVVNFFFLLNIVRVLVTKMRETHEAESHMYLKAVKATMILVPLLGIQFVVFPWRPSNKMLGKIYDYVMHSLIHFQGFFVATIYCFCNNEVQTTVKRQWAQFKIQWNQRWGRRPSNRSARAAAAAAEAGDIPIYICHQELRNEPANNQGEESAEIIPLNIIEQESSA
T1 sequence (looked up) 2: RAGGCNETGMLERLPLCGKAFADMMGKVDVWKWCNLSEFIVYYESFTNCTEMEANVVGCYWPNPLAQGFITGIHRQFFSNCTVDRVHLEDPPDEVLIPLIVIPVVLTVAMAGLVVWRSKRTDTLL
Experiment: cell-based or functional assay

- hAMYR3 EC50 (nM); cAMP induction: 0.12 nM
B1: [19CD]-isoGlu-R-C( )-GTAT-C( )-ATERLAHFLHRSSF-Gly(Me)-A-Ile(Me)-LSSTEVGSETP-NH2 (Compd. 26) (peptide)
peptide: {C20 diacid}-[γGlu]RCGTATCATERLAHFLHRSSF[Sar]A[NMeI]LSSTEVGSETP-NH2
modifications: disulfide 3-8
SMILES: CC[C@H](C)[C@@H](C(=O)N[C@@H](CC(C)C)C(=O)N[C@@H](CO)C(=O)N[C@@H](CO)C(=O)N[C@H](C(=O)N[C@@H](CCC(=O)O)C(=O)N[C@H](C(=O)NCC(=O)N[C@@H](CO)C(=O)N[C@@H](CCC(=O)O)C(=O)N[C@H](C(=O)N1CCC[C@H]1C(N)=O)[C@@H](C)O)C(C)C)[C@@H](C)O)N(C)C(=O)[C@H](C)NC(=O)CN(C)C(=O)[C@H](Cc1ccccc1)NC(=O)[C@H](CO)NC(=O)[C@H](CO)NC(=O)[C@H](CCCNC(=N)N)NC(=O)[C@H](Cc1c[nH]cn1)NC(=O)[C@H](CC(C)C)NC(=O)[C@H](Cc1ccccc1)NC(=O)[C@H](Cc1c[nH]cn1)NC(=O)[C@H](C)NC(=O)[C@H](CC(C)C)NC(=O)[C@H](CCCNC(=N)N)NC(=O)[C@H](CCC(=O)O)NC(=O)[C@@H](NC(=O)[C@H](C)NC(=O)[C@@H]1CSSC[C@H](NC(=O)[C@H](CCCNC(=N)N)NC(=O)CC[C@H](NC(=O)CCCCCCCCCCCCCCCCCCC(=O)O)C(=O)O)C(=O)NCC(=O)N[C@@H]([C@@H](C)O)C(=O)N[C@@H](C)C(=O)N[C@@H]([C@@H](C)O)C(=O)N1)[C@@H](C)O

- hAMYR3 EC50 (nM); cAMP induction: 0.19 nM
B2: [19CD]-isoGlu-R-C( )-NTAT-C( )-ATQRLAHFLVRSSF-Gly(Me)-A-Ile(Me)-LSSTEVGSETP-NH2 (Compd. 24) (peptide)
peptide: {C20 diacid}-[γGlu]RCNTATCATQRLAHFLVRSSF[Sar]A[NMeI]LSSTEVGSETP-NH2
modifications: disulfide 3-8
SMILES: CC[C@H](C)[C@@H](C(=O)N[C@@H](CC(C)C)C(=O)N[C@@H](CO)C(=O)N[C@@H](CO)C(=O)N[C@H](C(=O)N[C@@H](CCC(=O)O)C(=O)N[C@H](C(=O)NCC(=O)N[C@@H](CO)C(=O)N[C@@H](CCC(=O)O)C(=O)N[C@H](C(=O)N1CCC[C@H]1C(N)=O)[C@@H](C)O)C(C)C)[C@@H](C)O)N(C)C(=O)[C@H](C)NC(=O)CN(C)C(=O)[C@H](Cc1ccccc1)NC(=O)[C@H](CO)NC(=O)[C@H](CO)NC(=O)[C@H](CCCNC(=N)N)NC(=O)[C@@H](NC(=O)[C@H](CC(C)C)NC(=O)[C@H](Cc1ccccc1)NC(=O)[C@H](Cc1c[nH]cn1)NC(=O)[C@H](C)NC(=O)[C@H](CC(C)C)NC(=O)[C@H](CCCNC(=N)N)NC(=O)[C@H](CCC(N)=O)NC(=O)[C@@H](NC(=O)[C@H](C)NC(=O)[C@@H]1CSSC[C@H](NC(=O)[C@H](CCCNC(=N)N)NC(=O)CC[C@H](NC(=O)CCCCCCCCCCCCCCCCCCC(=O)O)C(=O)O)C(=O)N[C@@H](CC(N)=O)C(=O)N[C@@H]([C@@H](C)O)C(=O)N[C@@H](C)C(=O)N[C@@H]([C@@H](C)O)C(=O)N1)[C@@H](C)O)C(C)C

- hAMYR3 EC50 (nM); cAMP induction: 0.12 nM
B3: [19CD]-isoGlu-R-C( )-GTAT-C( )-ATERLAHFLNRSSF-Gly(Me)-A-Ile(Me)-LSSTEVGSST-Hyp-NH2 (Compd. 29) (peptide)
peptide: {C20 diacid}-[γGlu]RCGTATCATERLAHFLNRSSF[Sar]A[NMeI]LSSTEVGSST[Hyp]-NH2
modifications: disulfide 3-8
SMILES: CC[C@H](C)[C@@H](C(=O)N[C@@H](CC(C)C)C(=O)N[C@@H](CO)C(=O)N[C@@H](CO)C(=O)N[C@H](C(=O)N[C@@H](CCC(=O)O)C(=O)N[C@H](C(=O)NCC(=O)N[C@@H](CO)C(=O)N[C@@H](CO)C(=O)N[C@H](C(=O)N1C[C@H](O)C[C@H]1C(N)=O)[C@@H](C)O)C(C)C)[C@@H](C)O)N(C)C(=O)[C@H](C)NC(=O)CN(C)C(=O)[C@H](Cc1ccccc1)NC(=O)[C@H](CO)NC(=O)[C@H](CO)NC(=O)[C@H](CCCNC(=N)N)NC(=O)[C@H](CC(N)=O)NC(=O)[C@H](CC(C)C)NC(=O)[C@H](Cc1ccccc1)NC(=O)[C@H](Cc1c[nH]cn1)NC(=O)[C@H](C)NC(=O)[C@H](CC(C)C)NC(=O)[C@H](CCCNC(=N)N)NC(=O)[C@H](CCC(=O)O)NC(=O)[C@@H](NC(=O)[C@H](C)NC(=O)[C@@H]1CSSC[C@H](NC(=O)[C@H](CCCNC(=N)N)NC(=O)CC[C@H](NC(=O)CCCCCCCCCCCCCCCCCCC(=O)O)C(=O)O)C(=O)NCC(=O)N[C@@H]([C@@H](C)O)C(=O)N[C@@H](C)C(=O)N[C@@H]([C@@H](C)O)C(=O)N1)[C@@H](C)O

- hAMYR3 EC50 (nM); cAMP induction: 0.13 nM
B4: [19CD]-isoGlu-R-C( )-PTAT-C( )-ATDRLAHFLVRSSF-Gly(Me)-A-Ile(Me)-LSSTDVGSDTP-NH2 (Compd. 23) (peptide)
peptide: {C20 diacid}-[γGlu]RCPTATCATDRLAHFLVRSSF[Sar]A[NMeI]LSSTDVGSDTP-NH2
modifications: disulfide 3-8
SMILES: CC[C@H](C)[C@@H](C(=O)N[C@@H](CC(C)C)C(=O)N[C@@H](CO)C(=O)N[C@@H](CO)C(=O)N[C@H](C(=O)N[C@@H](CC(=O)O)C(=O)N[C@H](C(=O)NCC(=O)N[C@@H](CO)C(=O)N[C@@H](CC(=O)O)C(=O)N[C@H](C(=O)N1CCC[C@H]1C(N)=O)[C@@H](C)O)C(C)C)[C@@H](C)O)N(C)C(=O)[C@H](C)NC(=O)CN(C)C(=O)[C@H](Cc1ccccc1)NC(=O)[C@H](CO)NC(=O)[C@H](CO)NC(=O)[C@H](CCCNC(=N)N)NC(=O)[C@@H](NC(=O)[C@H](CC(C)C)NC(=O)[C@H](Cc1ccccc1)NC(=O)[C@H](Cc1c[nH]cn1)NC(=O)[C@H](C)NC(=O)[C@H](CC(C)C)NC(=O)[C@H](CCCNC(=N)N)NC(=O)[C@H](CC(=O)O)NC(=O)[C@@H](NC(=O)[C@H](C)NC(=O)[C@@H]1CSSC[C@H](NC(=O)[C@H](CCCNC(=N)N)NC(=O)CC[C@H](NC(=O)CCCCCCCCCCCCCCCCCCC(=O)O)C(=O)O)C(=O)N2CCC[C@H]2C(=O)N[C@@H]([C@@H](C)O)C(=O)N[C@@H](C)C(=O)N[C@@H]([C@@H](C)O)C(=O)N1)[C@@H](C)O)C(C)C

- hAMYR3 EC50 (nM); cAMP induction: 0.13 nM
B5: [19CD]-isoGlu-R-C( )-GTAT-C( )-ATERLAHFLQRSSF-Gly(Me)-A-Ile(Me)-LSSTEVGSST-Hyp-NH2 (Compd. 28) (peptide)
peptide: {C20 diacid}-[γGlu]RCGTATCATERLAHFLQRSSF[Sar]A[NMeI]LSSTEVGSST[Hyp]-NH2
modifications: disulfide 3-8
SMILES: CC[C@H](C)[C@@H](C(=O)N[C@@H](CC(C)C)C(=O)N[C@@H](CO)C(=O)N[C@@H](CO)C(=O)N[C@H](C(=O)N[C@@H](CCC(=O)O)C(=O)N[C@H](C(=O)NCC(=O)N[C@@H](CO)C(=O)N[C@@H](CO)C(=O)N[C@H](C(=O)N1C[C@H](O)C[C@H]1C(N)=O)[C@@H](C)O)C(C)C)[C@@H](C)O)N(C)C(=O)[C@H](C)NC(=O)CN(C)C(=O)[C@H](Cc1ccccc1)NC(=O)[C@H](CO)NC(=O)[C@H](CO)NC(=O)[C@H](CCCNC(=N)N)NC(=O)[C@H](CCC(N)=O)NC(=O)[C@H](CC(C)C)NC(=O)[C@H](Cc1ccccc1)NC(=O)[C@H](Cc1c[nH]cn1)NC(=O)[C@H](C)NC(=O)[C@H](CC(C)C)NC(=O)[C@H](CCCNC(=N)N)NC(=O)[C@H](CCC(=O)O)NC(=O)[C@@H](NC(=O)[C@H](C)NC(=O)[C@@H]1CSSC[C@H](NC(=O)[C@H](CCCNC(=N)N)NC(=O)CC[C@H](NC(=O)CCCCCCCCCCCCCCCCCCC(=O)O)C(=O)O)C(=O)NCC(=O)N[C@@H]([C@@H](C)O)C(=O)N[C@@H](C)C(=O)N[C@@H]([C@@H](C)O)C(=O)N1)[C@@H](C)O

- hAMYR3 EC50 (nM); cAMP induction: 0.094 nM
B6: [19CD]-isoGlu-R-C( )-PTAT-C( )-ATDRLAHFLHRSSF-Gly(Me)-A-Ile(Me)-LSSTDVGSNTP-NH2 (Compd. 25) (peptide)
peptide: {C20 diacid}-[γGlu]RCPTATCATDRLAHFLHRSSF[Sar]A[NMeI]LSSTDVGSNTP-NH2
modifications: disulfide 3-8
SMILES: CC[C@H](C)[C@@H](C(=O)N[C@@H](CC(C)C)C(=O)N[C@@H](CO)C(=O)N[C@@H](CO)C(=O)N[C@H](C(=O)N[C@@H](CC(=O)O)C(=O)N[C@H](C(=O)NCC(=O)N[C@@H](CO)C(=O)N[C@@H](CC(N)=O)C(=O)N[C@H](C(=O)N1CCC[C@H]1C(N)=O)[C@@H](C)O)C(C)C)[C@@H](C)O)N(C)C(=O)[C@H](C)NC(=O)CN(C)C(=O)[C@H](Cc1ccccc1)NC(=O)[C@H](CO)NC(=O)[C@H](CO)NC(=O)[C@H](CCCNC(=N)N)NC(=O)[C@H](Cc1c[nH]cn1)NC(=O)[C@H](CC(C)C)NC(=O)[C@H](Cc1ccccc1)NC(=O)[C@H](Cc1c[nH]cn1)NC(=O)[C@H](C)NC(=O)[C@H](CC(C)C)NC(=O)[C@H](CCCNC(=N)N)NC(=O)[C@H](CC(=O)O)NC(=O)[C@@H](NC(=O)[C@H](C)NC(=O)[C@@H]1CSSC[C@H](NC(=O)[C@H](CCCNC(=N)N)NC(=O)CC[C@H](NC(=O)CCCCCCCCCCCCCCCCCCC(=O)O)C(=O)O)C(=O)N2CCC[C@H]2C(=O)N[C@@H]([C@@H](C)O)C(=O)N[C@@H](C)C(=O)N[C@@H]([C@@H](C)O)C(=O)N1)[C@@H](C)O

- hAMYR3 EC50 (nM); cAMP induction: 0.16 nM
B7: [19CD]-isoGlu-R-C( )-PTAT-C( )-ATDRLAHFLHRSSF-Gly(Me)-A-Ile(Me)-LSSTDVGSDTP-NH2 (Compd. 27) (peptide)
peptide: {C20 diacid}-[γGlu]RCPTATCATDRLAHFLHRSSF[Sar]A[NMeI]LSSTDVGSDTP-NH2
modifications: disulfide 3-8
SMILES: CC[C@H](C)[C@@H](C(=O)N[C@@H](CC(C)C)C(=O)N[C@@H](CO)C(=O)N[C@@H](CO)C(=O)N[C@H](C(=O)N[C@@H](CC(=O)O)C(=O)N[C@H](C(=O)NCC(=O)N[C@@H](CO)C(=O)N[C@@H](CC(=O)O)C(=O)N[C@H](C(=O)N1CCC[C@H]1C(N)=O)[C@@H](C)O)C(C)C)[C@@H](C)O)N(C)C(=O)[C@H](C)NC(=O)CN(C)C(=O)[C@H](Cc1ccccc1)NC(=O)[C@H](CO)NC(=O)[C@H](CO)NC(=O)[C@H](CCCNC(=N)N)NC(=O)[C@H](Cc1c[nH]cn1)NC(=O)[C@H](CC(C)C)NC(=O)[C@H](Cc1ccccc1)NC(=O)[C@H](Cc1c[nH]cn1)NC(=O)[C@H](C)NC(=O)[C@H](CC(C)C)NC(=O)[C@H](CCCNC(=N)N)NC(=O)[C@H](CC(=O)O)NC(=O)[C@@H](NC(=O)[C@H](C)NC(=O)[C@@H]1CSSC[C@H](NC(=O)[C@H](CCCNC(=N)N)NC(=O)CC[C@H](NC(=O)CCCCCCCCCCCCCCCCCCC(=O)O)C(=O)O)C(=O)N2CCC[C@H]2C(=O)N[C@@H]([C@@H](C)O)C(=O)N[C@@H](C)C(=O)N[C@@H]([C@@H](C)O)C(=O)N1)[C@@H](C)O
